# Test results reported in the domain aggregation screens of Martell et al. (2025).
# Assay: soluble fraction after stress (log2 fold change); higher = more stays soluble; pooled small domains, quantitative proteomics
# Details: stress: 50 degC
# Summary of the method: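 Custom libraries of small protein domains were pooled and measured in a high-throughput format, with quantitative proteomics as the read-out. Each library was stressed at 50°C. The value is the log2 fold change in the amount of each protein that stays soluble after stress, used as a measure of aggregation propensity; higher values mean more of the protein stays soluble.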
row,Sequence,soluble fraction (log2)
1,HMSNMESLIGREATVIEMIPAEDVGRVKIDGDEWQAVLAREDDNEPRRDIQVGEKVIIVSYDSIILTVKTK,0.0115
2,HMEKYIVNQEEQGKRLDIYVVNKSSELTRTAVQRLIEQEHILVNGRKQKASYKVLEGDIITIERV,0.573
3,HMAPTGTDRQTPHTRDELYLVLSGTGTFVNGDARHPFGPGDALFVPAGAEHRFEDFSDDFRTWVVFYGAEG,-0.162
4,HMDKSRPVLRVGDSGDWVSKLQTALLEFGYRVAVDGVFGEHTKSAVVHFQNGRRLIADGVVGNLTWDALL,-2.31
5,HMTRNGTVTFFNHDKGYGFIKDVLTQESVFVHINSLSEPINEQNKVSFEIEMGPRGSNAINVKLI,-1.97
6,HMPATPDATVQAVQQRLNELGYDVGSADGLMGRGTRSAIIAFQQDRGLAATGVADQALLLQLQP,0.208
7,HMTGESVPAPLSGTIFKILVAPGEQVEEGQTVIILEAMKMETEISAPRSGVVGAINIKEGDSVQVGQSLFT,0.0706
8,HMGTVQSVDRALLLLSEIGREPGGLVDLSTRVRLATSTTGRILATLEHAGAVVRGDDGIYHIGPLVHGMVS,-0.839
9,HMEGTEILVNIRKGMTKEEIASLLVSKGLVEDKNTFLVQTALYTSDRYPIQPGSYTLNTAQTPEEMLAVMT,0.0128
10,HMLSYDDTVVIGRNLLENAMKQKNIALEQLTDEVLARLAKELQVESVEAMYAGIGSGKRPSSFIINRLEAH,-0.569
11,HMSTRYVRTPAGQAEIQARVFKLSRPVRNLLLVINDSRSIDDWLVQVHGITADDVAMLRAEGLIAEVS,-2.4
12,HMETAESLLRRLIMLEDPAMQNAMYVLAVMLERGKQLVERAAKPHESGGILRVYEHKKSGDTFVVLDPR,-0.511
13,HMHQAVTVTKPARLFTGPDGKGVVRSLDVGMMLYPTGEKQGMMWEVEDELGNKGWVSSTLLELS,0.207
14,HMEQVLDEEIIKSAVQKVIKDNPSAVSDYKAGKKTAFQFLIGKAMAELQGKGHPGKISELLEKE,0.439
15,HMSDIYSLFERELGRTLSSYEYEIIGKWIEKGVSEDTIKRALKEAILNGVTNFKYIDKIIYDWSKN,-0.499
16,HMFERIYVFSRDGDIIELPKGSTVLDFAYHVHTHVGNRAQAARVNKRYVPLTYQLKTGEQVEIIIS,-1.2
17,HMFEDYNELDEYLETRFIPTYVLLKQRKNANGEIDHFPSIRLQHIMALKLSEAELEHVMNYLKEKNIRVG,-0.325
18,HMDLPDTLSMPNALKVLEDNGFPTSKAKLYKMTSQEQIPFMKYGNKLVFSRKALIEWAHKQLV,-1.1
19,HMDVSASEVGLTGRQTDVLSLMVKGRSNRDIAELLGLSEGTVKIHITAIFKALGVASRTQALVAAARLGLK,-0.156
20,HMGTVISVDKARSIALAKVPGASANDIRIHLDRDDGRQIYEGEIYYNRMEYEFEIDASTGTIIEWSAEHW,-1.73
21,HMPSDTNLIGKTGIAYTTLRPGGTALIDDRKVDVVADSEYIEKDKKIKVIRVEGIKVVVTAVK,0.091
22,HMLTGNTAKLFAHLVEVMNPKEFVKINRQTVIVEAGIPRGSVGAAIAKLLETGHLIANASGAYKLT,0.322
23,HMDTFNVIARQEIDGILYEYKIMTVEDYKNQSPENLAVIYENIKAVMEQYDLSEDDADAILVDLLG,-1.12
24,HMTTLAADFNSDGRVDIGDLSILAGNWGKSRTNEVDFNKYGDADYNGRIDIIDLSILATQFGQTDNSN,-0.0889
25,HMGDRRSVFEQSVLDAIKSLVKQGELATTKAISDHIGTNYQGNVSRAITALLADNKIKKLPKEGVLQPYEA,0.0535
26,HMNLTSSDIQKILSYALLADNSITLNSIEESMASLKLKKMSAEQLIELLEVSSMVLRNTNNSWSIL,-1.95
27,HMTVTTDITQYFLQENGLLNGPNARQLRQKIGETLNIGYTNGKQLLKRAQQFGLTRDQILTALKK,-0.481
28,HMSSKIKYSEFITMLDKGEVESVVLKSDTLTITLKHGTGVAAQTKTTTLMEDLSELTKRLEKAGIKDFDK,0.0396

row,Sequence,soluble fraction (log2)
1,HMSRIDRKGLTSQIVNHLSKNPGKNFTLKQFFRNLKLNTHPLKMLAVDVLNKLLDTNFITRNEDGEFFLKA,0.337
2,HMDKFTYVVKKEDEQYQIKDILRHNFTFSSRLRKKLKQNNSIFLNGAETVGWATPKEGDIISVRLP,-0.433
3,HMTVVIKVQASQLESWKSSAGTEIKAKLIAVEDEKTYLFVTETGKTIRATAAQLDESSVSRARKLAGL,-1.03
4,HMGMEENLLKERKQILMDIMKSKEYQPMKVKELAMVLNVPKEDREELRYVLNELMNEGKIVESKKGKFSIA,0.177
5,HMIGEKLKEIREKTGMNKKEFAQYLGLKYTTYNNYETEAREPASDFLILISTKFDVSIDYLLGLQ,-0.674
6,HMTVKVPDLRGKTLAEMQRILDDAGLKYEINDSTFSRTAIPGTVREVIPAPGSEVKLGRILFIAINGF,-0.914
7,HMSVPVDEVLAALTQKLTDLRTQAMAAKDFSAVDALKAALTEAGVEVRMSKTGVELIAGPRVDAKKLGTL,-0.03
8,HMEPMTDQQILEGFAEFKRQNPDLMNRPATQAIVNLTLPGGTPISFRSGAGAAALNQYLESIGMRAGP,0.202
9,HMAQSTALVNLAQAEINKRGLTQTEVQARLSEEGINVNSISPAEYPKYQKQILSILDQMQKEKQLSKEV,0.412
10,HMSAQPMEYSRFYSDVTQGRVAEVEIEGREINGRLSTGERFKTFSPETDNKALIGHLLDNGVVIEGKPP,0.234
11,HMSLPNNLIEQLQDPEPKARRRAVRRLAATRDPSAIPLLRNVYLQDGDDRVRDAAEAALVQFRAMQHN,0.0586
12,HMVGEPEPIRYSRFLDEMKSGKLDSVVIQGDTILGVRKDKSQFKTVNPETDYSALIGALDKAGVGIEGRA,0.146
13,HMTTIHVDPEKISKIIGPGGKTIKKIVEETGAKIDIEEDGRVYIAAVNSEEAAKAIDMINGI,0.257
14,HMPLEQAELRLDLKQAILQMDRQTQELLLLRYVDGLSPGEAGKVLELSRFAVYRREKEALRKLRDYFSH,-1.79
15,HMNSLQNNLKQARTRVGLTQGVLASQAGISRQAYSTLESGSANPSTEVALRLAQALQERVELLFYLPER,-0.705
16,HMQVSDANQLTDVVKSIIKQYPVEVEKYKSGKKALFGFFMGKVMENLKGKSNPKILKNVLTEILD,0.108
17,HMLDLPVRTINGRQYYYYEVRNRETVYGLSKRLGVTREEIVRYNPSMADGLKRGAILYFPVDEFSDRI,-0.281
18,HMKQDFVYNGFVEAKGDDLMVQINYKGETYYVTEGESFGGFTVKSANKDKVVLSGQGGAETVLEFR,-0.106
19,HMKSILDDVVGLGPVRKKALLSAAGGFRKLRDMDVDEVIGLGAVPEEVAREVVTVLAQYNGERDRVEGL,-0.0545
20,HMFGEDNLKSKEIKERVTEVAKHADDPVWIEARRKWKDENPDQNVKDYQQAYISGRIHELPWDVSYI,0.142
21,HMGVDKLTPREREVLALMAQGASNREIEGKLVLTAGAVSKHVANVFMKLGFSPEDENRRVKAVLAWLRTK,-1.05
22,HMESYDSEIKEVLDLAGKGRWEEAQTKADALREMAPNNSLVERLHGWVLQAAHQRREQALENDIRE,0.286
23,HMHSEEAALLHRYIDSLEEPQHTVVVMRDIGGYSFEEIASVVQLKEAHIWMILSRARRKLRELYIKTMDHH,0.138
24,HMVNYKEILRLSAEGNSQRQIAAGSGNSRNTVIEVLEAARARGITWPLDEPVTNEQLEAILFPNRY,0.134
25,HMNDTNEEAVLSIILKNPQATQGAIAKEVGASLSTVKRIMRNLQKSGKLRREGTNRNGSWVVTGQK,0.0846
26,HMGVKTDKYYYQMATETRVNKHYGLSNQYIATLISEYPRSPLIPNASILSKKNNADLALIDQSINQR,-0.397
27,HMSDAVQLGLRLRAARERRGLSQQAVADALGLPRTAVTNMESGNRAVSTLELTKLAALYGQSTAFFLSP,-0.1
